According to article PMC3281842 (2012):
Square brackets hold non-standard residues; d marks the D form. Ends that are not written are not given here. Arg(Me2a) = CN(C)C(=N)NCCC[C@H](N)C(=O)O

Target: TDRD3 (aa 520–633) (human, UniProt Q9H7E2 520-633)
Assay: ITC

TG[Arg(Me2a)]ARARA [PIWIL1_R4me2a peptide (TGRme2aARARA)]
Kd: > 500 µM
